According to paper PMC6235870:

How the values were obtained:
[1] = target: CTD of MaSp1 from E. australis modified at C82 with AttoOxa11 (Euprosthenops australis); assay: fluorescence chasing experiment (dissociation kinetics); 60, 120 and 180 nM CTD-AttoOxa11 dimers chased with 20 µM chemically reduced wild-type CTD, manual mixing, 298 K, emission at 677 nm; bi-exponential fit; dimer to monomers
[2] = target: CTD of MaSp1 from E. australis modified at C82 with AttoOxa11 (Euprosthenops australis); assay: stopped-flow fluorescence spectroscopy (refolding and dimerisation of denatured monomers); sub-µM CTD-AttoOxa11 in 8 M urea mixed 1:10 into 50 mM phosphate pH 7.0, ionic strength 200 mM (KCl), 298 K; denatured monomers to dimeric intermediate I2
[3] = target: C-terminal domain (CTD) of major ampullate spidroin 1 (MaSp1) from Euprosthenops australis, wild type (Euprosthenops australis); assay: far-UV CD equilibrium chemical denaturation at varying protein concentration; urea 0-10 M, CD at 222 nm, 5-30 µM CTD, 50 mM phosphate pH 7.0, ionic strength 200 mM (KCl), 298 K, reducing (1 mM DTE); three-state model N2-I2-D; dimeric intermediate to denatured monomers

| Substance | koff [1] [s⁻¹] | observed time constant of dissociation, first exponential, 60 nM [1] [s] | observed time constant of dissociation, first exponential, 120 nM [1] [s] | observed time constant of dissociation, first exponential, 180 nM [1] [s] | observed time constant of dissociation, second exponential, 60 nM [1] [s] | observed time constant of dissociation, second exponential, 120 nM [1] [s] | observed time constant of dissociation, second exponential, 180 nM [1] [s] | time constant of dissociation (mean weighted by amplitudes) [1] [s] | kon [2] [M⁻¹ s⁻¹] | stoichiometry N [3] |
| --- | --- | --- | --- | --- | --- | --- | --- | --- | --- | --- |
| CTD of MaSp1 from E. australis modified at C82 with AttoOxa11 (domain or fragment) | 0.008 | 51 | 37 | 34 | 208 | 186 | 194 | 128 | 5.2e+07 |  |
| C-terminal domain (CTD) of major ampullate spidroin 1 (MaSp1) from Euprosthenops australis, wild type (domain or fragment) |  |  |  |  |  |  |  |  |  | 2 |
